Target: Rabbit skeletal myosin (rabbit)
Assay: cell-based or functional assay

Sequence of Rabbit skeletal myosin (Q28641 whole entry): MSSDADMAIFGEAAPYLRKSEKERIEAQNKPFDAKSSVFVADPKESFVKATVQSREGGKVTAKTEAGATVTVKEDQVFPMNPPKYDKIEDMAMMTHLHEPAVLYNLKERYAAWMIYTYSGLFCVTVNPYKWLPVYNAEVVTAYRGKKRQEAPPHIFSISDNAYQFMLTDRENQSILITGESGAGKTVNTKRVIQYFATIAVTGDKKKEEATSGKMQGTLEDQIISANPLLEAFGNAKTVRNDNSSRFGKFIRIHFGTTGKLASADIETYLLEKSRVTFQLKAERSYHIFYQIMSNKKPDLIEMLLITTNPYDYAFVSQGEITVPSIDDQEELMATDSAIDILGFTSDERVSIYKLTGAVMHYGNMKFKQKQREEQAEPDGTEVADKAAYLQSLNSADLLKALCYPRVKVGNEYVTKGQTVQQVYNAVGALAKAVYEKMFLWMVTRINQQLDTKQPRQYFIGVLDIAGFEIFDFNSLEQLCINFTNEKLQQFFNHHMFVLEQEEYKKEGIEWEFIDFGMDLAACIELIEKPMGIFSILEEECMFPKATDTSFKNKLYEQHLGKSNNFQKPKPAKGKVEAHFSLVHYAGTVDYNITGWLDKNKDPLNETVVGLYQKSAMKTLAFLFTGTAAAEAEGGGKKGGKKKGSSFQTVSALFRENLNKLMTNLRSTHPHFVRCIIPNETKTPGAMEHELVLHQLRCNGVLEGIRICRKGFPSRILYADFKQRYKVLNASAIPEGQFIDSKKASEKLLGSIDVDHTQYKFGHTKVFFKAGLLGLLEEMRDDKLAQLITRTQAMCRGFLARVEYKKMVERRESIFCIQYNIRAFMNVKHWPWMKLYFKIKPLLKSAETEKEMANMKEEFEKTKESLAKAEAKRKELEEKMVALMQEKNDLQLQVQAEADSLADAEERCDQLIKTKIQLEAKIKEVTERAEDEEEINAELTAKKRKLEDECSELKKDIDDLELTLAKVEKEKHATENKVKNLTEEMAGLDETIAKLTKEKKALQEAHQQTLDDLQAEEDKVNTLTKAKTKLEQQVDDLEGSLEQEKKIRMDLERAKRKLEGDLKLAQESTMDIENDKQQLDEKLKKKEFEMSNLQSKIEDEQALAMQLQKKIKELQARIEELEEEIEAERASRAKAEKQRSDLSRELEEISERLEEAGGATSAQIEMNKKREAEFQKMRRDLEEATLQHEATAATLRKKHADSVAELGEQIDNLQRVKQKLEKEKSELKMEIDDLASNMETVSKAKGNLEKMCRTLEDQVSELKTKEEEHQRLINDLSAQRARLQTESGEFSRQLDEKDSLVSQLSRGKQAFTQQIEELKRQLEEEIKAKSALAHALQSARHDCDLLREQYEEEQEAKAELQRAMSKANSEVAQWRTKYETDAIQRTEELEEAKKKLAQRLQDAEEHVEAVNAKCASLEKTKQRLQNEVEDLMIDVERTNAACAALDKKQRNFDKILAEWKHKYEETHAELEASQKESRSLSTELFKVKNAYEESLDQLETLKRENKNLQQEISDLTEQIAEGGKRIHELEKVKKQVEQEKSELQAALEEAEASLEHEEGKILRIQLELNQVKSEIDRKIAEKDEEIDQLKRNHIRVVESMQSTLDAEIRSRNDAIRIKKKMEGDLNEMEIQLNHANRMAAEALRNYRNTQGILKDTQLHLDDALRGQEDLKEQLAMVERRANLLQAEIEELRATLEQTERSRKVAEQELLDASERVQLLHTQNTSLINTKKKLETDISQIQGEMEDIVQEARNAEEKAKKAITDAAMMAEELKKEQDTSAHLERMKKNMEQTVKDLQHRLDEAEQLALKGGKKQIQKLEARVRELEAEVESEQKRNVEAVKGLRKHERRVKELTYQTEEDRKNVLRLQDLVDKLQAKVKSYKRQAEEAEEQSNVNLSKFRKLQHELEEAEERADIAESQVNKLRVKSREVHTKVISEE
Sequence of Rabbit skeletal myosin (P02602 2-192, further chain): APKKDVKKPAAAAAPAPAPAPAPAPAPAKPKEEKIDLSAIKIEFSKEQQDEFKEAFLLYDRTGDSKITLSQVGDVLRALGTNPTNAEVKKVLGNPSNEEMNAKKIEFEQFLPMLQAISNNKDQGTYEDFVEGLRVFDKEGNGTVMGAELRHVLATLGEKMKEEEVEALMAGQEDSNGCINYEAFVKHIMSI
Sequence of Rabbit skeletal myosin (P02608 2-170, further chain): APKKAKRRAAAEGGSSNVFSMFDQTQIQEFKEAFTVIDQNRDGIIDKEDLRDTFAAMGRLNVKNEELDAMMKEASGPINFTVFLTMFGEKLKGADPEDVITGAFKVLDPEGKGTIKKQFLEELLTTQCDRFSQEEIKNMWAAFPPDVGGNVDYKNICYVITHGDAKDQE

GFS: force at an uncoiled length of 138 nm, control without antibody [pN]	GFS: force to uncoil the myosin molecule for a length of 50 nm, no stabilizer (control) [pN]	GFS: force to uncoil the myosin molecule for a length of 60 nm, tethered by S1 heads to G-actin (control) [pN]	GFS: force to uncoil the myosin molecule to a length of 100 nm, no destabilizer (control) [pN]	in vitro motility: reduction of the motility of actin thin filaments over skeletal myosin thick filaments treated with MyBPC [%]	Substance
4.8	3.62	2.67	4.92		Rabbit skeletal myosin
				22	Myosin binding protein C (MyBPC), whole length skeletal

— patent US12617818
